{"source": "paper PMC9865888", "target": "S. aureus DNA gyrase fusion truncate GyrB27:A56 (GKdel) (Staphylococcus aureus) (UniProt P66937)", "assay": "crystal structure; 2.8 Å, space group P6_(1); microbatch under oil, 20 °C; complex with 20-447T DNA duplex, zoliflodacin and MnCl2; 90 mM Bis-Tris pH 6.3, 9% PEG 5 kMME", "data": [{"substance": "S. aureus DNA gyrase fusion truncate GyrB27:A56 (GKdel) (from UniProt P66937 409-644; Q99XG5 2-491) (enzyme)", "values": [{"measurement": "stoichiometry N", "value": 2}]}]}
